One block for each binder: values may come before it.
Columns and labels:
[1] = target: T1, HLA-B44 (HLA-B*4403) (human); test: concluded from lysis of peptide-pulsed BAGM-EBV cells and TNF assays with HLA-B44 transfectants; no direct binding assay
T1 construct: whole, on cells; MHC class I molecule on BAGM-EBV cells or transfected COS-7 cells

[2] = target: T1, HLA-B44 (HLA-B*4403); test: lysis of peptide-pulsed BAGM-EBV cells by TIL 2.4
Method: FIG. 4 depicts the lysis of BAGM-EBV cells pulsed with the MAGE.C2.B44 peptides. […] TIL2.4 was added at a ratio of 15:1. The chromium release was measured after 4 hours. The nonapeptide (-▪-) is the antigenic sequence recognized by the TIL.
To identify the antigenic peptide, several minigenes were generated by amplifying different fragments of the MAGE-C2 cDNA by PCR. The PCR products were cloned into plasmid vector pCDNA3.1/His by TOPO T/A cloning (MAGE-C2/HLA-A2 patent and Ma W et al., Int. J. Cancer: in press, incorporated herein by reference). COS-7 cells were transfected with vectors encoding HLA-B44 and vectors encoding the different minigenes described above. TIL 2.4 were added to the transfected cells and TNF production was measured (FIG. 3X). […] Candidate peptides bearing the binding motif for HLA-B44 were then synthesized and pulsed onto BAGM-EBV cells. These pulsed cells were combined with TIL2.4 and assayed for lysis. […] The nonapeptide and the decapeptide were then synthesized and assayed individually.

binding result [1]: binds
B1: MAGE-C2 nonapeptide SESIKKKVL (SEQ ID NO: 107) (peptide)
peptide: SESIKKKVL
notes: Synthetic peptide; also called MAGE.C2 antigenic peptide

binding result [2]: binds
Binder: SESIKKKVLEF (Synthetic peptide) [MAGE-C2 11-mer peptide SESIKKKVLEF (SEQ ID NO: 106)]
